Target: fibronectin fragment FN7-10 (type III domains 7 to 10), wild type
Test: ELISA

reduction of binding against the wild-type ectodomain: 60%
Substance: recombinant integrin α5(N275A)β1 ectodomain, unclasped (from UniProt P08648;P05556) (complex)

Reference: publication PMC8104898
